Key:
[1] = target: synthetic D-streptavidin (mirror-image streptavidin) (S. avidinii); assay: SEC; analytical SEC of the folded proteins, with molecular weight standards
[2] = target: synthetic L-streptavidin (S. avidinii); assay: as above

| stoichiometry N [1] | stoichiometry N [2] | Substance |
| --- | --- | --- |
| 4 |  | synthetic D-streptavidin (mirror-image streptavidin) |
|  | 4 | synthetic L-streptavidin (natural protein) |

Reference: PMC12593833
